For 1 substance, percentage of PC12 cells with neurite outgrowth after 3 days, HB-EGF treated and rate of neurite extension induced by HB-EGF in PC12 cells in the presence of AG1478 (EGF receptor kinase inhibitor) results are on record in patent US20120053121A1.

The assay concerns the target EGF receptor (EGFR) on PC12 cells. Kind of assay: cell-based or functional assay.

Regarding “GMP-grade human mature HB-EGF produced in P. pastoris yeast (from UniProt Q99075 63-148) (ligand)”, the percentage of PC12 cells with neurite outgrowth after 3 days, HB-EGF treated was 87.8% and the rate of neurite extension induced by HB-EGF in PC12 cells in the presence of AG1478 (EGF receptor kinase inhibitor) is 24.3%.
